{"source": "patent US7271245B2", "about": "“Methods and compositions for inhibition of metastasis” (The Scripps Research Institute, priority 2004, dated 2007)", "molecules": {"B1": {"name": "Bc-12: patient derived human scFv antibody against activated αvβ3 with RGD motif in CDR-H3; cDNA ATCC PTA-6303 (protein)", "scFv": "MAQVQLVQSGAEVKKPGASVKVSCKASGYTFSNYGITWVRQAPGQGLEWMGWINNGNTHYAQKFQGRVTMTTDTSTSTAYMELRSLRSDDTAVYYCARDPRGDDEPYWGQGTLVTVSSGGGGSGGGGSGGGGSEIVLTQSPLSLPVTLGQPASISCRSSQNLVYSDGNTYLSWFQQRPGQSPRRLIYKVSNRDSGVPDRFSGSGSGTDFTLKISRVEAEDIGVYYCMQGTHWPPRTFGQGTKVEIKRGLGGLVDYKDDDDK"}}, "test_system": "activated integrin αvβ3", "experiment": "Flow cytometry, scFv binding to MDA-MB 435 variants and patient metastatic breast cancer cells", "set-up": "species or system human", "method": "FIGS. 1A, 1B, 1C. Patient derived scFvs Bc-12 and Bc-15 recognize tumor cell integrin αvβ3 in a cation and activation dependent manner. Flow cytometric analyses in TBS with or without 1 mM Ca^2+, 1 mM Mg^2+, or 0.2 mM Mn^2+ as indicated. Binding of soluble scFv detected after incubation with anti-Flag M2 murine mAb followed by FITC-anti mouse F(ab′)2. (A) scFv binding to human melanoma cells (M21: αvβ3 plus other αv integrins) (M21-LIIb: αIIbβ3, no αv integrins) or lung adenocarcinoma cells (UCLA-P3: αv integrins, no β3 integrin). (B) scFv binding to M21 melanoma cells. (C) scFv binding to variants of MDA-MB 435 human breast cancer cells that lack (β^3−) or express αvβ3 either in a non-activated (β3WT, ParentCo) or activated form (β3D723R, Bone, Lung, and BMS metastatic cancer cells isolated from breast cancer patient blood).\nFIGS. 2A, 2B, 2C, 2D. Translation of scFv DNA sequence analyses. (A) Consensus amino acid sequence (SEQ ID NO: 9) of Bc-12 (SEQ ID NO: 7) and Bc-15 (SEQ ID NO: 8) (specific for activated αvβ3) compared to Bc-20 (specific for αv) (SEQ ID NO: 10). (B) scFv binding to BMS human breast cancer cells by flow cytometry, indicating loss of Bc-12 and Bc-15 binding when CDR-H3 RGD is mutated to RGE (Mut-12 and Mut-15). […] (C) cDNA sequences for scFv Bc-12 (SEQ ID NO: 1) and scFv Bc-15 (SEQ ID NO: 3). The cDNA encoding scFv Bc-12 has an ATCC accession number PTA-6303, date of deposit: Nov. 12, 2004. The cDNA encoding scFv Bc-15 has an ATCC accession number PTA-6304, date of deposit: Nov. 12, 2004. (D) cDNA sequences for scFv Mut-12 (SEQ ID NO: 5) and scFv Mut-15 (SEQ ID NO: 6). scFv Mut-12 is the RGE containing mutant version of scFv Bc-12. scFv Mut-15 is the RGE containing mutant version of scFv Bc-15.\nFlow cytometry. scFv binding to human tumor cells was analyzed by flow cytometry, initially with cloned scFv phage and then with purified scFv protein. Per sample, 2×10^5 tumor cells were blocked with goat serum and incubated either with scFv phage (2-5×10^10) (1 h at RT) followed by mouse anti-M13 mAb (Serotec) (30 min on ice) and goat FITC-anti mouse (Pierce) (30 min on ice), or with purified scFv (1.25 to 40 μg/ml, routinely 10 to 15 μg/ml) (45 min on ice), followed by mouse anti-FLAG mAb M2 (Sigma) (30 min on ice) and goat FITC-anti mouse. Binding/washing buffer was TBS with or without divalent cations (1 mM Ca^2+, 1 mM Mg^2+, 0.2 mM Mn^2+). Alternatively, tumor cells were washed in 10 ml of plasma (prepared freshly from human blood anticoagulated with 50 nM D-Phe-D-Pro-D-arginyl chloromethyl ketone, PPACK, Felding-Habermann et al., J. Biol. Chem. 271: 5892-5900, 1996), resuspended in plasma and then incubated sequentially, without washing, with purified scFv (45 min on ice), followed by anti-FLAG M2 (30 min on ice) and FITC-anti mouse (30 min on ice). All samples were counter stained with propidium iodide (PI) and analyzed on a Becton-Dickinson FACScan, with live gate set to exclude PI positive cells.\nTo test this further, the effects of cation combinations on Bc-12 and Bc-15 binding were examined. […] Smith, Methods Cell Biol. 69: 247-259, 2002; Hughes et al., J. Biol. Chem. 271: 6571-6574, 1996. To confirm that scFv Bc-12 and Bc-15 selectively recognize αvβ3 in its activated form, binding of these antibodies to in vitro generated and in vivo selected variants of the MDA-MB 435 breast cancer cell model was tested. […] In contrast, Bc-12 and Bc-15 were able to bind an MDA-MB 435 variant expressing constitutively activated mutant αvβ3D723R, without exogenous stimulation with Mn^2+. […] Importantly, scFvs Bc-12 and Bc-15 recognized in vivo selected MDA-MB 435 variants from bone and lung metastases, as well as metastatic cells isolated from breast cancer patient blood samples (FIG. 1C). These cells express αvβ3 in a constitutively activated form. Felding-Habermann et al., Proc. Natl. Acad. Sci. U.S.A 98: 1853-1858, 2001; Rolli et al., Proc. Natl. Acad. Sci. U.S.A 100: 9482-9487, 2003."}
{"molecule": "B1", "values": [{"measurement": "binding to MDA-MB 435 variant expressing αvβ3D723R with Mn2+", "setting": "Mn^2+ added", "value": "further enhanced"}, {"measurement": "binding to MDA-MB 435 variant expressing αvβ3D723R", "setting": "constitutively activated mutant, without Mn^2+", "value": "able to bind"}, {"measurement": "binding to β3-negative MDA-MB 435 cells", "setting": "β3− variant", "value": "failed to bind"}]}
